Reference: patent US20250243281A1 (IMMUNITAS THERAPEUTICS, published 2025)

T1: hCLEC2D (human, UniProt Q9UHP7 1-191)
T1 construct: Overexpressed on HEK293 or K562 cells; the same id is used for endogenous CLEC2D on NALM6 and Raji cells; also called LLT1
T1 sequence: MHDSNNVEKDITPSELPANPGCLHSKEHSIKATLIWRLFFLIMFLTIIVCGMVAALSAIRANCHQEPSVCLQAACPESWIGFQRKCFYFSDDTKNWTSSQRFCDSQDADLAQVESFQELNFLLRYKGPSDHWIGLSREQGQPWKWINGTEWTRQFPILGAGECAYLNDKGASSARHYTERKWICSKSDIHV

T2: hKLRF2 (human, UniProt D3W0D1 1-207)
T2 construct: Overexpressed on HEK293 cells
T2 sequence: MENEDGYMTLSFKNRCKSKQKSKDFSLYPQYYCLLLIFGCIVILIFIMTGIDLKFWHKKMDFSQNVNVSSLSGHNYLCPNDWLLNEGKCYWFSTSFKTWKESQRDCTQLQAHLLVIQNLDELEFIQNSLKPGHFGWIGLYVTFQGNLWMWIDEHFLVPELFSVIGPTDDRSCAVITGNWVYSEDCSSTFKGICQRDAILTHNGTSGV

T3: hCLEC12B (human, UniProt Q2HXU8 1-276)
T3 construct: Overexpressed on HEK293 cells
T3 sequence: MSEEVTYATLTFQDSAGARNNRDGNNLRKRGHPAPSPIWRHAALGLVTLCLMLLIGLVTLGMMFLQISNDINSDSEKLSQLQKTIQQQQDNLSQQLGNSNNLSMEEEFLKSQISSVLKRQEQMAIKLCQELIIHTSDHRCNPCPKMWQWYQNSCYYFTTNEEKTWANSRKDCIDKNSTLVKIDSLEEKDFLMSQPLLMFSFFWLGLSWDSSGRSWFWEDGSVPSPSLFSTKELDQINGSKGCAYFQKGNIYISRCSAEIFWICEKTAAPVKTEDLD

T4: hKLRF1 (human, UniProt Q9NZS2 1-231)
T4 construct: Overexpressed on HEK293 cells
T4 sequence: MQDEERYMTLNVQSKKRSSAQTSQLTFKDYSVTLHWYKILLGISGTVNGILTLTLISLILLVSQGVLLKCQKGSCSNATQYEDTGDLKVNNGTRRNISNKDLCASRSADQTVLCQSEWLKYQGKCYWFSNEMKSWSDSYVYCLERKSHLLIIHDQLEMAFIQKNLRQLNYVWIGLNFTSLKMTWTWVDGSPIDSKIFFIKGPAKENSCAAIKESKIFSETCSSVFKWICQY


Assays:
human HSP70 = target: T5, human HSP70 (human, UniProt P0DMV8 1-641); test: polyspecificity ELISA, coated HSP70, 100 nM antibody
T5 construct: polyspecificity reagent

hCLEC2D [1] = target: T1, hCLEC2D; test: flow cytometry; 100 nM antibody on HEK293 cells expressing CLEC2D; Alexa Fluor 647 anti-human IgG; MFI
Procedure: (§1) For the antibody binding assay, all cell lines were washed in phosphate-buffered saline with 0.1% bovine serum albumin (PBSA) and seeded in a 96 well plate at a density of 4×10⁴ cells per well. Washed cells were resuspended in 100 nM of antibody (a saturating concentration to measure maximum binding on cells) and incubated at room temperature for 30 minutes. […] Cells were analyzed by flow cytometry with a Thermo Fisher Attune flow cytometer.
(§2) Data were analyzed using FlowJo software. MFI for each sample was calculated and exported into Graphpad Prism.

hKLRF2 [2] = target: T2, hKLRF2; test: flow cytometry; 100 nM antibody on HEK293 cells expressing KLRF2; Alexa Fluor 647 anti-human IgG; MFI
Procedure: as §1, §2

hCLEC12B [3] = target: T3, hCLEC12B; test: flow cytometry, HEK293 transfectants, 100 nM antibody;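 further: antibody applied at a saturating level and incubated with cells for 30 min at room temperature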
Procedure: as §1, §2

hKLRF1 [4] = target: T4, hKLRF1; test: as above
Procedure: as §1, §2

hCLEC2D [5] = target: T1, hCLEC2D; test: as above
Procedure: as §1, §2

hKLRF2 [6] = target: T2, hKLRF2; test: as above
Procedure: as §1, §2

hCLEC12B [7] = target: T3, hCLEC12B; test: flow cytometry; 100 nM antibody on HEK293 cells expressing CLEC12B; Alexa Fluor 647 anti-human IgG; MFI
Procedure: as §1, §2

hKLRF1 [8] = target: T4, hKLRF1; test: flow cytometry; 100 nM antibody on HEK293 cells expressing KLRF1; Alexa Fluor 647 anti-human IgG; MFI
Procedure: as §1, §2

T5 sequence (P0DMV8 whole entry): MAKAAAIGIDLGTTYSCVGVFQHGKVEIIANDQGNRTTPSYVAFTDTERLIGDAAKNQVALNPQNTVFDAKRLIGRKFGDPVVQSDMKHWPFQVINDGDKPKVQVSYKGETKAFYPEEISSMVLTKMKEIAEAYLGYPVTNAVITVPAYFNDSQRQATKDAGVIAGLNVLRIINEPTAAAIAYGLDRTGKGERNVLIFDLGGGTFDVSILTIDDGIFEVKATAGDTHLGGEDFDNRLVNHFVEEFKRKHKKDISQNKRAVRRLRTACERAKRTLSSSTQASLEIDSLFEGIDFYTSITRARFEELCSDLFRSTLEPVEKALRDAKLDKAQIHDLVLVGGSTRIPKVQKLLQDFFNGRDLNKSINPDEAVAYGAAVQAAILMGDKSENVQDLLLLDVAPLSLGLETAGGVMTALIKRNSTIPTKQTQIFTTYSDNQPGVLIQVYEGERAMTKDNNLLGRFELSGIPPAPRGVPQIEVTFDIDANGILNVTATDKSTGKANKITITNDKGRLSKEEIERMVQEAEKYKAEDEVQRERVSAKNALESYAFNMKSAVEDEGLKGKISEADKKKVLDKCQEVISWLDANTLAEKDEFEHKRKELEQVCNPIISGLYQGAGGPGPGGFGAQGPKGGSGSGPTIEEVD

Binder	Norm (signal over AdalimumAb) (human HSP70) [fold]	binding result (hCLEC2D [1])	binding result (hKLRF2 [2])	% of CD161 binding (hCLEC12B [3]) [%]	% of CD161 binding (hKLRF1 [4]) [%]	% of CD161 binding (hCLEC2D [5]) [%]	% of CD161 binding (hKLRF2 [6]) [%]	binding result (hCLEC12B [7])	binding result (hKLRF1 [8])
Ustekinumab (antibody, V domains shown) VH: EVQLVQSGAEVKKPGESLKISCKGSGYSFTTYWLGWVRQMPGKGLDWIGIMSPVDSDIRYSPSFQGQVTMSVDKSITTAYLQWNSLKASDTAMYYCARRRPGQGYFDFWGQGTLVTVSS VL: DIQMTQSPSSLSASVGDRVTITCRASQGISSWLAWYQQKPEKAPKSLIYAASSLQSGVPSRFSGSGSGTDFTLTISSLQPEDFATYYCQQYNIYPYTFGQGTKLEIK	3.71								
Ab9 (antibody, human IgG1, V domains shown) VH: EVQLLESGGGLVQPGGSLRLSCAASGFTFSPYAMSWVRQAPGKGLEWVSAISASGGTTYYADSVKGRFTISRDNSKNTLYLQMNSLRAEDTAVYYCAKPLDSSFWADFDLWGRGTLVTVSS VL: DIQLTQSPSSVSASVGDRVTITCRASQGISSWLAWYQQKPGKAPKLLIYAASSLQSGVPSRFSGSGSGTDFTLTISSLQPEDFATYYCQQHSVLPITFGGGTKVEIK		no binding (tested: 100 nM)	no binding (tested: 100 nM)	0.025	0.042	0.808	0.028	no binding (tested: 100 nM)	no binding (tested: 100 nM)
